The text below walks through data of patent publication US20230235074A1 (University of Texas, published 2023).

In test [1] the target is T1, BST2 long isoform (BST2-D, full length BST2, 180 amino acids) expressed on HEK293 transfectants (human, UniProt Q10589 1-161).
T1 construct: also called HEK293-long; HEK293 WT-BST2
Nature of the test: flow cytometry, hybridoma supernatant on HEK293-long cells. On the procedure: For flow cytometry assays, cells were detached using 0.05% trypsin-EDTA, counted, washed and resuspend with FACS Buffer (PBS, 2% FBS, 2 mM EDTA). 2×10⁵ cells in 100 ul/well were placed in U-bottom 96-well plate and centrifuged (1000 RPM/3 min/4° C.). The buffer was discarded and 100 ul of the previously collected supernatants with selected monoclonal antibodies were added to the wells and incubated on ice for 30 minutes. After incubation, the plate was washed three times with FACS buffer and 50 ul of diluted (1/250) secondary antibody (Donkey anti-mouse Allophycocyanin (APC) conjugated) were added to the wells and incubated on ice for 20 minutes protected from light. The final wash was repeated 4 times, and the samples were transferred and analyzed at the South Campus Flow Cytometry & Cell Sorting Core Laboratory at MD Anderson Cancer Center. FACS data were analyzed with FlowJo™ Software—for Windows (Version 10.6.1. Ashland, Oreg.: Becton, Dickinson and Company; 2020).

The target in test [2] is BST2 as expressed endogenously on the surface of human cell lines (B-LCL, MM1, U266, MCF-10A, MCF7, MDA-MB-231, T47D) (human) (UniProt Q10589). Kind of test: flow cytometry on U266 cells, mAb 1 ug/ml.
Test [3] shares this target. Nature of the test: flow cytometry on MM1 cells, mAb 1 ug/ml.
The target is the same in test [4]. Nature of the test: flow cytometry on T47D cells, mAb 1 ug/ml.
Test [5] shares this target. Nature of the test: flow cytometry on MDA-MB-231 cells, mAb 1 ug/ml.
Test [6] has the same target. Kind of test: flow cytometry on B-LCL cells, mAb 1 ug/ml.
Test [7] has the same target. Nature of the test: flow cytometry on MCF7 cells, mAb 1 ug/ml.
The target is the same in test [8]. Kind of test: flow cytometry on MM1 cells, mAb preincubated 10 min with recombinant BST2 protein (5 ug/ml) as competitor.
Test [9] shares this target. Kind of test: flow cytometry on MCF-10A cells, mAb 1 ug/ml.
For test [10] the target is unchanged. Kind of test: flow cytometry on MM1 cells, mAb preincubated 10 min with Spartan protein (5 ug/ml).
For test [11], the target named is T2, Spartan protein (SprT-like domain-containing protein) (human, UniProt Q9H040 1-489, limits assumed).
T2 construct: Irrelevant protein control in the preincubation assay; also called Spartan irrelevant protein; irrelevant protein
T2 sequence (looked up): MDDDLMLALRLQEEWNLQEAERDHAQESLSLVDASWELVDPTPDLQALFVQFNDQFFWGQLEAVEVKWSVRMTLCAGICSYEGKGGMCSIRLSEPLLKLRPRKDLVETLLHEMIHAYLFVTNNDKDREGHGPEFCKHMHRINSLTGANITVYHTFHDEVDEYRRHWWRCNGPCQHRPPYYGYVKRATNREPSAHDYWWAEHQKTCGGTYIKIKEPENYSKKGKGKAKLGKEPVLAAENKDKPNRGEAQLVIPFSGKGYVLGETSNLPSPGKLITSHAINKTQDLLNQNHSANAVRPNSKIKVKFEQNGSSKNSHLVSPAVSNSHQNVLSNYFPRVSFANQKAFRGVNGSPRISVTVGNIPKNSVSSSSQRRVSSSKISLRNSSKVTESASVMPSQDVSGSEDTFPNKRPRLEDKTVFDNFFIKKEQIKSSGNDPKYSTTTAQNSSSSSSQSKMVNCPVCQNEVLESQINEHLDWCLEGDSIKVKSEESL
Kind of test: flow cytometry of MM1 cells after preincubation of the mAb with Spartan protein. On the procedure:
A specificity assay was performed and analyzed through flow cytometry staining of MM1, a multiple myeloma cell line. In this assay, changes in the binding of the LA5 mAb to the BST2 receptor expressed on MM1 cell lines were assessed after:
As part of the characterization of the selected antibody candidate, the inventors analyzed the specificity of the new antibody by flow cytometry staining of a cell line, constitutively expressing BST2, competing the antibody binding to the cells with a recombinant BST2 protein and an irrelevant target. Staining of MM1, a multiple myeloma cell line, was assessed at different conditions to test the binding specificity of the generated monoclonal antibodies. Anti-BST2-long (clone LA5) was pre-incubated with BST2 protein for 10 minutes, before being transferred to U-bottom wells plate containing MM1 cells. […] Alternatively, Spartan protein, or SprT-like domain-containing protein, a human DNA-binding metalloprotease with 489 amino acid length and involved in the response to DNA replication errors (34, 35) was used as an irrelevant protein.

The target in test [12] is BST2 as expressed endogenously on the surface of human cell lines (B-LCL, MM1, U266, MCF-10A, MCF7, MDA-MB-231, T47D) (human) (UniProt Q10589). Nature of the test: flow cytometry on MM1 cells, mAb not preincubated.
Test [13] deals with T3, Recombinant human BST2 protein (Catalog number 13370-H07H, Sino Biological) (human, UniProt Q10589 49-161).
T3 construct: Bought soluble protein; also called full length recombinant BST2 protein; full-length BST2 protein
T3 sequence (looked up): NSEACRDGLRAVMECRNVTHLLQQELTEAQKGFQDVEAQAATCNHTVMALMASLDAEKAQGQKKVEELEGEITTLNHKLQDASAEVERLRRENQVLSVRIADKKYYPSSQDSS
Nature of the test: BLI (Octet RED384), mAb 5 ug/ml captured on anti-mouse IgG Fc (AMC) biosensors, BST2 protein 15.625-1000 nM, 1:1 model, global fit. On the procedure:
Binding kinetics of the anti-BST2-long mAb clone LA5 was assessed, using Octet RED384 platform system. Briefly, antibodies were captured, as described under methods, by specific biosensors that bind the Fc region of the antibody. Based on prior experiments and certain standard operations procedures, 5 ug/ml was selected as the fixed concentration for the mAb. Various concentrations of the full length recombinant BST2 protein were used to assess the antibody affinity. The interaction was analyzed with a 1:1 binding model, involving both the association and the dissociation steps.

B1: anti-BST2-long monoclonal antibody clone LA5 (antibody, mouse IgG1, V domains shown)
VH: EVQLQQSGAELVRSGASVNLSCTASGFNIKDYYIHWVKQRPERGLEWIGWIDPENGDTEYAPEFQGKASMTADTSSNTAYLQLSSLTSEDTAVYYCKRGDWGQGTLVTVSA
VL: DVLMTQTPLSLPVSLGDQASISCRSSQSIVHSNGNTYLEWFLQKPGQSPKLLIYKVSNRFSGVPDRFSGSGSGTDFTLKISRVEAEDLGVYYCFQGSHAPFTFGSGTELEIK
notes: Mouse hybridoma antibody; Used as hybridoma supernatant in the screening assays and as Protein A purified mAb afterwards; also called LA5 mAb; MAb LA5
Take B1: in [1], the “percentage of cells stained” value is 58.3%. For the same molecule, the percentage of cell staining in test [2] was 96.1%; in test [3], 98.6%; in [4] it was 2.6%; in test [5], 1%; in [6], 99.3%; in test [7] it was 0.43%. The molecule also yielded a percentage of cell staining in test [9] of 2.4%. For the same molecule, the staining percentage of the MM1 cells in test [8] was 5.01%; in test [10] it was 83.9%; in test [12] it was 85.2%. Besides, in test [11], the binding result is “no binding (tested: 5 ug/ml)”. In [13], the Kd was 4.61 nM. In test [13], the koff was 0.000921 s⁻¹. In [13], the kon is 200000 M⁻¹ s⁻¹.
